Where “and” joins values, the source holds several entries; their conditions need not be identical. Equal values may be shown once. Read-outs that look alike come from different tables or passages of the source. Marks after values point to notes of the source that are not given here. Non-standard residues stand in square brackets, D forms with d. Residues, ends and D or L forms follow the SMILES beside them. Primed or numbered codes have the meaning given here. No end group written: not given here. *: point of attachment. PEG(1) = polyethylene glycol containing substituent with 1 ethyleneoxy subunit; Decanoyl(3,6,9-trioxa) = COCCOCCOCC(=O)*; Glyceroyl(2S) = O=C([C@@H](O)CO)*; hArg = N=C(N)NCCCC[C@H](N)C(=O)O; 3Pal = N[C@@H](Cc1cccnc1)C(=O)O; Cha = N[C@@H](CC1CCCCC1)C(=O)O; Chg = N[C@H](C(=O)O)C1CCCCC1; Nle = CCCC[C@H](N)C(=O)O; PEG(15) = PEG(15): -; PEG(16) = PEG(16): -; PEG(17) = PEG(17): -; Glycolyl = O=C(CO)*
Molecular target: T1, enzymatically active free PSA (Homo sapiens, UniProt P07288)
T1 construct: required for 50% cleavage of the noted oligopeptides with enzymatically active free PSA
Assay type: biochemical
Details: for Time to 50% Substrate Cleavage by York PSA (Min), values marked *: asterisk not explained in Table 2
Procedure: All other oligopeptides were tested as neutral compounds.

[1] = oligopeptide, PSA digestion buffer pH8.0, molar ratio to PSA 100 to 1

T1 sequence (P07288 25-261): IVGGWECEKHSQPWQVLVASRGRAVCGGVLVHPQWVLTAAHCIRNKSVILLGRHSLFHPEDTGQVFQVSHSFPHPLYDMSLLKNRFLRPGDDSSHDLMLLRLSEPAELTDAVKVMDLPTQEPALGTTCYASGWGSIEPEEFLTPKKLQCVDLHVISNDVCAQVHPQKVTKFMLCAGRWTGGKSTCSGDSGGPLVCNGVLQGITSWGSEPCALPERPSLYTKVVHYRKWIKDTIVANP

Compound | Time to 50% Substrate Cleavage by York PSA [1] | also measured
2,3-dihydroxypropionyl-hRSSChgQ-SL-acid: blocked oligopeptide with PSA cleavage site, Example 1 | 50 min | 
2(S)2,3-dihydroxypropionyl-hRSSChgQ-SL-acid: blocked oligopeptide with PSA cleavage site, Example 1 ({2(S)‑2,3‑dihydroxypropionyl}-[hArg]SS[Chg]QSL-OH) |  | Time to 50% Substrate Cleavage by York PSA (Min), values marked * (oligopeptide): 25* Min
PEG(2)-3PAL-SSChgQ-SL-acid: blocked oligopeptide with PSA cleavage site, Example 1 ({Decanoyl(3,6,9-trioxa)}-[3Pal]SS[Chg]QSL-OH; SMILES COCCOCCOCC(=O)N[C@@H](Cc1cccnc1)C(=O)N[C@@H](CO)C(=O)N[C@@H](CO)C(=O)N[C@H](C(=O)N[C@@H](CCC(N)=O)C(=O)N[C@@H](CO)C(=O)N[C@@H](CC(C)C)C(=O)O)C1CCCCC1) | 80 min | 
PEG(2)-hRSSChgQ-SL-acid: blocked oligopeptide with PSA cleavage site, Example 1 ({Decanoyl(3,6,9-trioxa)}-[hArg]SS[Chg]QSL-OH) |  | Time to 50% Substrate Cleavage by York PSA (Min), values marked * (oligopeptide): 40* Min
(l)2,3-dihydroxypropionyl-3PAL-SSChgQ-SL-acid: blocked oligopeptide with PSA cleavage site, Example 1 ({Glyceroyl(2S)}-[3Pal]SS[Chg]QSL-OH; SMILES CC(C)C[C@H](NC(=O)[C@H](CO)NC(=O)[C@H](CCC(N)=O)NC(=O)[C@@H](NC(=O)[C@H](CO)NC(=O)[C@H](CO)NC(=O)[C@H](Cc1cccnc1)NC(=O)[C@@H](O)CO)C1CCCCC1)C(=O)O) | 70 min | 
2,3-dihydroxypropionyl-ShRChgQ-SL-acid: blocked oligopeptide with PSA cleavage site, Example 1 ({2,3‑dihydroxypropionyl}-S[hArg][Chg]QSL-OH) | 75 min | 
PEG(1)-ShRYQ-SL-acid: blocked oligopeptide with PSA cleavage site, Example 1 ({PEG(1)}-S[hArg]YQSL-OH) | 90 min | 
2-hydroxyacetyl-ShRChgQ-SL-acid: blocked oligopeptide with PSA cleavage site, Example 1 (Glycolyl-S[hArg][Chg]QSL-OH) | 120 min | Time to 50% Substrate Cleavage by York PSA (Min), values marked * (oligopeptide): 30 min
2(S)-2,3-dihydroxy-propionyl ShRChgQSL-acid: blocked oligopeptide with PSA cleavage site, Example 1 ({2(S)‑2,3‑dihydroxypropionyl}-S[hArg][Chg]QSL-OH) |  | Time to 50% Substrate Cleavage by York PSA (Min), values marked * (oligopeptide): 35* Min
PEG(2)-S-hRChgQ-SL-acid: blocked oligopeptide with PSA cleavage site, Example 1 ({Decanoyl(3,6,9-trioxa)}-S[hArg][Chg]QSL-OH) | 30 min | 
2-hydroxyacetyl-hRSSYQ-SNle-acid: blocked oligopeptide with PSA cleavage site, Example 1 (Glycolyl-[hArg]SSYQS[Nle]-OH) | 45 min | 
PEG(14)ShRYQ-SL-acid: blocked oligopeptide with PSA cleavage site, Example 1 ({PEG(14)}-S[hArg]YQSL-OH) | 40 min | 
PEG(2)-ShRYQ-SL-acid: blocked oligopeptide with PSA cleavage site, Example 1 ({Decanoyl(3,6,9-trioxa)}-S[hArg]YQSL-OH) |  | Time to 50% Substrate Cleavage by York PSA (Min), values marked * (oligopeptide): 35* Min
CCCC[C@H](NC(=O)[C@H](CO)NC(=O)[C@H](CCC(N)=O)NC(=O)[C@H](Cc1ccc(O)cc1)NC(=O)[C@H](CO)NC(=O)[C@H](CO)NC(=O)[C@H](CCCCNC(=N)N)NC(C)=O)C(=O)O [Ac-hRSSYQ-SNle-acid] (Ac-[hArg]SSYQS[Nle]-OH) |  | Time to 50% Substrate Cleavage by York PSA (psa digestion buffer, pH 8): 25 min
CCCC[C@H](NC(=O)[C@H](CO)NC(=O)[C@H](CCC(N)=O)NC(=O)[C@H](Cc1ccc(O)cc1)NC(=O)[C@H](CCCCNC(=N)N)NC(=O)[C@H](CO)NC(C)=O)C(=O)O [Ac-ShRYQ-SNle-acid] (Ac-S[hArg]YQS[Nle]-OH) |  | Time to 50% Substrate Cleavage by York PSA (psa digestion buffer, pH 8): 25 min
Ac-ANKASYQ-SL-acid: blocked oligopeptide with PSA cleavage site, Example 1 (chain 1 Ac-ANKASYQSL-OH; chain 2 Ac-ANKASYQSL-OH) | 135 min and 220 min | 
2-hydroxyacetyl-SSChgQ-SL-acid: blocked oligopeptide with PSA cleavage site, Example 1 (Glycolyl-SS[Chg]QSL-OH) | 180 min | 
(l)2,3-dihydroxypropionyl-SSChgQ-SL-acid: blocked oligopeptide with PSA cleavage site, Example 1 ({Glyceroyl(2S)}-SS[Chg]QSL-OH) | 180 min | 
AchRSSChgQ-SL-acid: blocked oligopeptide with PSA cleavage site, Example 1 (Ac-[hArg]SS[Chg]QSL-OH) | 120 min | Time to 50% Substrate Cleavage by York PSA (Min), values marked * (oligopeptide): 45 min

Compound | Time to 50% Substrate Cleavage by York PSA [1] | also measured
PEG(19)ShRYQ-SL-acid: blocked oligopeptide with PSA cleavage site, Example 1 ({PEG(19)}-S[hArg]YQSL-OH) | 60 min | 
(l)2,3-dihydroxypropionyl-SSSChgQ-SL-acid: blocked oligopeptide with PSA cleavage site, Example 1 ({Glyceroyl(2S)}-SSS[Chg]QSL-OH) | 80 min and 110 min | 
ShRChgQ-SL-acid: oligopeptide without N-terminal blocking group, Example 1 (S[hArg][Chg]QSL-OH) |  | Substrate cleavage by York PSA at 4 HOUR (oligopeptide, 4 hours): 4 HOUR = 8%
2-hydroxyacetylhRYQ-SL-acid: blocked oligopeptide with PSA cleavage site, Example 1 (Glycolyl-[hArg]YQSL-OH; SMILES CC(C)C[C@H](NC(=O)[C@H](CO)NC(=O)[C@H](CCC(N)=O)NC(=O)[C@H](Cc1ccc(O)cc1)NC(=O)[C@H](CCCCNC(=N)N)NC(=O)CO)C(=O)O) |  | Time to 50% Substrate Cleavage by York PSA (Min), values marked * (oligopeptide): 105* Min
CCCC[C@H](NC(=O)[C@H](CO)NC(=O)[C@H](CCC(N)=O)NC(=O)[C@H](CC1CCCCC1)NC(=O)[C@H](CCCCNC(=N)N)NC(C)=O)C(=O)O [Ac-hR(CHA)Q-SNle-acid] (Ac-[hArg][Cha]QS[Nle]-OH) |  | Time to 50% Substrate Cleavage by York PSA (psa digestion buffer, pH 8): 200 min
PEG(2)SSSChgQ-SL-acid: blocked oligopeptide with PSA cleavage site, Example 1 ({Decanoyl(3,6,9-trioxa)}-SSS[Chg]QSL-OH) | 150 min | 
Ac-hRASChgQ-SL-acid: blocked oligopeptide with PSA cleavage site, Example 1 (Ac-[hArg]AS[Chg]QSL-OH; SMILES CC(=O)N[C@@H](CCCCNC(=N)N)C(=O)N[C@@H](C)C(=O)N[C@@H](CO)C(=O)N[C@H](C(=O)N[C@@H](CCC(N)=O)C(=O)N[C@@H](CO)C(=O)N[C@@H](CC(C)C)C(=O)O)C1CCCCC1) | 50 min | 
(OH-Ac)SSSChgQ-SL-acid: 2-hydroxyacetyl blocked oligopeptide with PSA cleavage site, Example 1; blocked peptide of Example 3 Step B (Glycolyl-SSS[Chg]QSL-OH) | 120 min | 
PEG(18)ShRYQ-SL-acid: blocked oligopeptide with PSA cleavage site, Example 1 ({PEG(18)}-S[hArg]YQSL-OH) | 40 min | 
PEG(17)-ShRYQ-SL-acid: blocked oligopeptide with PSA cleavage site, Example 1 ({PEG(17)}-S[hArg]YQSL-OH) | 55 min | 
(d)2,3-dihydroxypropionyl-3PAL-SSChgQSL-acid: blocked oligopeptide with PSA cleavage site, Example 1 ({(d)‑2,3‑dihydroxypropionyl}-[3Pal]SS[Chg]QSL-OH) | 80 min | 
PEG(15)-ShRYQ-SL-acid: blocked oligopeptide with PSA cleavage site, Example 1 ({PEG(15)}-S[hArg]YQSL-OH) | 40 min | 
PEG(1)-ShRChgQ-SL-acid: blocked oligopeptide with PSA cleavage site, Example 1 ({PEG(1)}-S[hArg][Chg]QSL-OH) |  | Time to 50% Substrate Cleavage by York PSA (Min), values marked * (oligopeptide): 120* Min
CC(C)C[C@H](NC(=O)[C@H](CO)NC(=O)[C@H](CCC(N)=O)NC(=O)[C@H](Cc1ccc(O)cc1)NC(=O)[C@H](CO)NC(=O)[C@H](CO)NC(=O)[C@H](CCCCNC(=N)N)NC(=O)CO)C(=O)O [2-hydroxyacetyl-hRSSYQ-SL-acid] (Glycolyl-[hArg]SSYQSL-OH) |  | Time to 50% Substrate Cleavage by York PSA (psa digestion buffer, pH 8): 35 min
PEG(16)-ShRYQ-SL-acid: blocked oligopeptide with PSA cleavage site, Example 1 ({PEG(16)}-S[hArg]YQSL-OH) | 40 min | 
2,3-dihydroxypropionyl-GSSChgQ-SL-acid: blocked oligopeptide with PSA cleavage site, Example 1 ({2,3‑dihydroxypropionyl}-GSS[Chg]QSL-OH) | 160 min | 
2-hydroxyacetyl-hRASChgQ-SL-acid: blocked oligopeptide with PSA cleavage site, Example 1 (Glycolyl-[hArg]AS[Chg]QSL-OH; SMILES CC(C)C[C@H](NC(=O)[C@H](CO)NC(=O)[C@H](CCC(N)=O)NC(=O)[C@@H](NC(=O)[C@H](CO)NC(=O)[C@H](C)NC(=O)[C@H](CCCCNC(=N)N)NC(=O)CO)C1CCCCC1)C(=O)O) | 70 min | 
2,3-dihydroxypropionyl-ShRYQ-SL-acid: blocked oligopeptide with PSA cleavage site, Example 1 ({2,3‑dihydroxypropionyl}-S[hArg]YQSL-OH) | 35 min and 50 min | 
